# In patent US20260049151A1 (SHENGHE CHINA BIOPHARMACEUTICAL, published 2026):
# Read-outs that look alike come from different tables or passages of the source.
# B1: Antibody N (bispecific antibody, human IgG1, kappa)
# light: EVQLVESGGGLVQPGGSLRLSCAASGSRLDYYAVAWFRQAPGKEREEVSCITYSGGSTNYAESVKGRFTISRDNSKNTLYLQMNSLRAEDTAVYYCTTEPYGSSCPLSGYDTWGQGTLVTVSSGGGGSGGGGSGGGGSDIQMTQSPSSLSASLGDRVTISCSASQGISNYLNWYQQKPDGTVKLLIYYTSTLHSGVPSRFSGSGSGTDYTLTISSLQPEDIATYYCQQYSKLPWTFGGGTKLEIKRTVAAPSVFIFPPSDEQLKSGTASVVCLLNNFYPREAKVQWKVDNALQSGNSQESVTEQDSKDSTYSLSSTLTLSKADYEKHKVYACEVTHQGLSSPVTKSFNRGEC
# heavy: not shown
# notes: IgG1 subtype; full-length 4-1BB antibody with TNFR2 VHH at the N-terminus of the light chains
# B2: Antibody K (bispecific antibody, human IgG1, kappa)
# light: DIQMTQSPSSLSASLGDRVTISCSASQGISNYLNWYQQKPDGTVKLLIYYTSTLHSGVPSRFSGSGSGTDYTLTISSLQPEDIATYYCQQYSKLPWTFGGGTKLEIKRTVAAPSVFIFPPSDEQLKSGTASVVCLLNNFYPREAKVQWKVDNALQSGNSQESVTEQDSKDSTYSLSSTLTLSKADYEKHKVYACEVTHQGLSSPVTKSFNRGECGGGGSGGGGSEVQLVESGGGLVQPGGSLRLSCAASGSRLDYYAVAWFRQAPGKEREEVSCITYSGGSTNYAESVKGRFTISRDNSKNTLYLQMNSLRAEDTAVYYCTTEPYGSSCPLSGYDTWGQGTLVTVSS
# heavy: not shown
# notes: IgG1 subtype; full-length 4-1BB antibody with TNFR2 VHH at the C-terminus of the light chains
# B3: Antibody G (bispecific antibody, human IgG1, kappa)
# light: DIVMTQSPATLSVSPGERATLSCKASQNVGSNVDWYQQKPGQSPRVLIYKASIRYTGIPARFSGSGSGTEFTLTISILQSEDFAVYFCMQSKSYPITFGQGTKLEIKRTVAAPSVFIFPPSDEQLKSGTASVVCLLNNFYPREAKVQWKVDNALQSGNSQESVTEQDSKDSTYSLSSTLTLSKADYEKHKVYACEVTHQGLSSPVTKSFNRGEC
# heavy: not shown
# notes: IgG1 subtype; full-length TNFR2 antibody with 4-1BB scFv at the N-terminus of the heavy chains
# B4: Antibody E2 (bispecific antibody, human IgG4 S228P, kappa)
# light: B3 light
# heavy: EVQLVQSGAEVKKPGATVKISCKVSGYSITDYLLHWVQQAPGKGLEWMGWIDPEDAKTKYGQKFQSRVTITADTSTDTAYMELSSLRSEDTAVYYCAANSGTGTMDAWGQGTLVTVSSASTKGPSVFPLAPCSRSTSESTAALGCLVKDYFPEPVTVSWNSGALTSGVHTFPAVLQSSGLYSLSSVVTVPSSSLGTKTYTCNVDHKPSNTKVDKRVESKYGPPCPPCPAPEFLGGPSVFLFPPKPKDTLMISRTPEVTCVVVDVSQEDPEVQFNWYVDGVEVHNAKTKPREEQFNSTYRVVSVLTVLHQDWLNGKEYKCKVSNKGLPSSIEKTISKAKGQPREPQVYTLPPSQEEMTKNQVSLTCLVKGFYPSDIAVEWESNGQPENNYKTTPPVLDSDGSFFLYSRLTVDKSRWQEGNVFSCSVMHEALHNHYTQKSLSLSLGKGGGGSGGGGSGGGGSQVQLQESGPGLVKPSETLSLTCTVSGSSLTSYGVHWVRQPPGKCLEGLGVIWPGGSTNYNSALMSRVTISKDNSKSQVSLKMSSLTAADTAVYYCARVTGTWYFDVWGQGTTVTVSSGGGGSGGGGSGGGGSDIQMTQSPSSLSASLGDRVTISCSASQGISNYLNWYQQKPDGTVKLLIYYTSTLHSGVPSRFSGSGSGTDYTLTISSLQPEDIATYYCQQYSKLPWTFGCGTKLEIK
# notes: IgG4 subtype; same order as E1
# How the values were obtained:
# [1] = molecular target: T1, Human 4-1BB His (human, UniProt Q07011 24-186); experiment: ELISA: Human 4-1BB His coated (0.2 ug/mL), antibody titrated, goat anti-human IgG Fc detection (Example 3)
# T1 construct: Bought protein; lots 198-2146F1-W6 and 2407c-214FF1-YC; also called human 4-1BB protein; 4-1BB protein; not shown: His tag
# Protocol: (§1) Human 4-1BB His (manufacturer: Acro, CAT: 41B-H5258, LOT: 198-2146F1-W6) was diluted to 0.2 μg/mL with a coating solution (1×PBS, pH7.4), and coated in 96-well ELISA plate at 100 μL/well overnight at 4° C. The coating solution was poured off. Each well was washed with 1×PBST at 300 μL, washed 4 times with a plate washer, and patted dry on a flat paper. It was blocked with 3% skim milk powder at 300 μL/well, and incubated at 37° C. for 1 h. The blocking solution was poured off, washed 4 times with a plate washer, and patted dry on a flat paper. Negative control and positive control were set up. […] The variable region of the antibody sequence of the positive control consists of SEQ ID NO: 15 and SEQ ID NO: 19, with the addition of the constant region of human IgG1 (SEQ ID NO: 46 and SEQ ID NO: 47). The positive control and antibody were diluted to 10 μg/mL with 3% skim milk powder as the starting concentration, and then diluted by 3-fold gradient (11 gradients in total), and a blank well was set up and only the diluent was added. It was incubated at 37° C. for 1 h at 100 μL/well. The liquid in the well was discarded, washed 4 times with a plate washer, and patted dry on a flat paper. Goat anti-human IgG Fc was diluted with 3% skim milk powder at 1:20000, and incubated at 37° C. for 1 h at 100 μL/well. It was washed 6 times with a plate washer, and patted dry on a flat paper. TMB color developing solution was added at 100 μL/well, and wrapped with aluminum foil. Color development was performed at 37° C. in the dark for 8 min. Termination solution 1M HCl was added to terminate the color development reaction at 100 μL/well. Readings were taken at 450 nm on an ELISA reader.
# [2] = molecular target: T2, Human 4-1BB Fc (human, UniProt Q07011 24-186); experiment: bridging ELISA: Human 4-1BB Fc coated (0.3 ug/mL), antibody titrated, then Human-TNFR2-His (0.3 ug/mL), HRP anti-His detection (Example 4)
# T2 construct: same catalogue and lot number as Human 4-1BB His; not shown: Fc
# Protocol: Human 4-1BB Fc (manufacturer: Acro, CAT: 41B-H5258, LOT: 198-2146F1-W6) was diluted to 0.3 μg/mL with a coating solution (1×PBS, pH7.4) and coated into a 96-well ELISA plate at 100 µL/well at 4° C. overnight. The coating solution was poured off. Each well was washed with 1×PBST at 300 μL, washed 4 times with a plate washer, and patted dry on a flat sheet. It was blocked with 3% skim milk powder at 300 μL/well, and incubated at 37° C. for 1 h. The blocking solution was poured off, washed 4 times with a plate washer, and patted dry on a flat sheet. […] Starting at 50 nM, which was used as the initial concentration for 3-fold dilution, a total of 10 gradients were diluted, and a blank well was set up and only the diluent was added. It was incubated at 37° C. for 1 h at 100 μL/well. The liquid in the well was discarded, washed 4 times with a plate washer, and patted dry on a flat paper. Human-TNFR2-His (manufacturer: Sino, CAT: 10417-H08H, LOT: LC15NO0412) was diluted to 0.3 μg/mL, 100 μL was added to each well, and incubated at room temperature for 1 h. The plate was washed 3 times with PBST, and then the HRP-labeled his antibody was diluted with sample diluent at 1:5000, 100 μ L was added to each well, and incubated at room temperature for 1 h. It was washed 6 times with a plate washer, and patted dry on a flat paper. TMB color developing solution was added at 100 μL/well, and wrapped with aluminum foil. Color development was performed at 37° C. in the dark for 8 min. Termination solution 1M HCl was added to terminate the color development reaction at 100 μL/well. Readings were taken at 450 nm on an ELISA reader.
# [3] = molecular target: T3, Human-TNFR2-His (human, UniProt P20333 23-257); experiment: ELISA: Human-TNFR2-His coated (0.1 ug/mL), antibody titrated, goat anti-human IgG Fc detection (Example 2)
# T3 construct: Bought protein; also called human TNFR2 protein; TNFR2 protein; not shown: His tag
# T3 sequence (looked up): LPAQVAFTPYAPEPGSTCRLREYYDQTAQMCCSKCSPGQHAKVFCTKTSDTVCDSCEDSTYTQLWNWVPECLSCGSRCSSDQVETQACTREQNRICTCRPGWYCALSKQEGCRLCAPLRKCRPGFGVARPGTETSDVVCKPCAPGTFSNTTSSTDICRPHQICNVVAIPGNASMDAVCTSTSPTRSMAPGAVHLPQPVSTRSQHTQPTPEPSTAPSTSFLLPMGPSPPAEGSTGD
# Protocol: (§2) Human-TNFR2-His (manufacturer: SINO, CAT: 10417-H08H, LOT: LC15NO0412) was diluted to 0.1 μg/mL with a coating solution (1×PBS, pH7.4), and coated in 96-well ELISA plate at 100 µL/well overnight at 4° C. The coating solution was poured off. Each well was washed with 1×PBST at 300 μL, washed 4 times with a plate washer, and patted dry on a flat paper. It was blocked with 3% skim milk powder at 300 μL/well, and incubated at 37° C. for 1 h. The blocking solution was poured off, washed 4 times with a plate washer, and patted dry on a flat paper. Negative control and positive control were set up. […] The positive control and antibody were diluted to 10 μg/mL with 3% skim milk powder as the starting concentration, and then diluted by 3-fold gradient (11 gradients in total), and a blank well was set up and only the diluent was added. It was incubated at 37° C. for 1 h at 100 μL/well. The liquid in the well was discarded, washed 4 times with a plate washer, and patted dry on a flat paper. Goat anti-human IgG Fc was diluted with 3% skim milk powder at 1:10000, and incubated at 37° C. for 1 h at 100 μL/well. It was washed 6 times with a plate washer, and patted dry on a flat paper. TMB color developing solution was added at 100 μL/well, and wrapped with aluminum foil. Color development was performed at 37° C. in the dark for 8 min. Termination solution 1M HCl was added to terminate the color development reaction at 100 μL/well. Readings were taken at 450 nm on an ELISA reader.
# [4] = molecular target: T4, Human TNFR2 mFc (human, UniProt P20333 23-257); experiment: bridging ELISA: Human TNFR2 mFc coated (0.3 ug/mL), antibody titrated, then Human 4-1BB His (0.3 ug/mL), HRP anti-His detection (Example 5)
# T4 construct: Bought protein; not shown: mFc
# T4 sequence (looked up): T3 sequence (looked up)
# Protocol: Human TNFR2 mFc (manufacturer: Kaixia, CAT: TN-HM3R2, LOT: 031202) was diluted to 0.3 μg/mL with a coating solution (1×PBS, pH7.4) and coated into a 96-well ELISA plate at 100 μL/well at 4° C. overnight. The coating solution was poured off. Each well was washed with 1×PBST at 300 μL, washed 4 times with a plate washer, and patted dry on a flat paper. It was blocked with 3% skim milk powder at 300 μL/well, and incubated at 37° C. for 1 h. The blocking solution was poured off, washed 4 times with a plate washer, and patted dry on a flat paper. […] Starting at 50 nM, which was used as the initial concentration for 3-fold dilution, a total of 10 gradients were diluted, and a blank well was set up and only the diluent was added. It was incubated at 37° C. for 1 h at 100 µL/well. The liquid in the well was discarded, washed 4 times with a plate washer, and patted dry on a flat paper. Human 4-1BB His (manufacturer: Acro, CAT: 41B-H5258, LOT: 198-2146F1-W6) was diluted to 0.3 μg/mL, 100 μL was added to each well, and incubated at room temperature for 1 h. The plate was washed 3 times with PBST, and then the HRP-labeled his antibody was diluted with sample diluent at 1:5000, 100 μ L was added to each well, and incubated at room temperature for 1 h. It was washed 6 times with a plate washer, and patted dry on a flat paper. TMB color developing solution was added at 100 μL/well, and wrapped with aluminum foil. Color development was performed at 37° C. in the dark for 8 min. Termination solution 1M HCl was added to terminate the color development reaction at 100 μL/well. Readings were taken at 450 nm on an ELISA reader.
# [5] = molecular target: T3, Human-TNFR2-His; experiment: ELISA: Human-TNFR2-His coated (0.1 ug/mL), antibody titrated, goat anti-human IgG Fc detection (Example 2); remark: listed apart in the source
# Protocol: as §2
# [6] = molecular target: T3, Human-TNFR2-His; experiment: as above; remark: listed apart in the source
# Protocol: as §2
# [7] = molecular target: T1, Human 4-1BB His; experiment: ELISA: Human 4-1BB His coated (0.2 ug/mL), antibody titrated, goat anti-human IgG Fc detection (Example 3); remark: listed apart in the source
# Protocol: as §1
# [8] = molecular target: T3, Human-TNFR2-His; experiment: ELISA: Human-TNFR2-His coated (0.1 ug/mL), antibody titrated, goat anti-human IgG Fc detection (Example 2); remark: listed apart in the source
# Protocol: as §2
# [9] = molecular target: T1, Human 4-1BB His; experiment: ELISA: Human 4-1BB His coated (0.2 ug/mL), antibody titrated, goat anti-human IgG Fc detection (Example 3); remark: listed apart in the source
# Protocol: as §1
# T2 sequence (Q07011 24-186 limits assumed): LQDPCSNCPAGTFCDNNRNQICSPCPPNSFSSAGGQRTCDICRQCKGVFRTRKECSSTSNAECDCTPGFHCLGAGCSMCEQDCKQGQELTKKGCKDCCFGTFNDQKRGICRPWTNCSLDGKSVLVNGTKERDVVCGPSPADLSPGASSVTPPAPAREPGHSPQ
# T1 sequence (Q07011 24-186 limits assumed): as above
Binder,EC50 (read off the curve) [1] [nM],EC50 (read off the curve) [2] [nM],EC50 (read off the curve) [3] [nM],EC50 (read off the curve) [4] [nM],EC50 (read off the curve) [5] [nM],EC50 (read off the curve) [6] [nM],EC50 (read off the curve) [7] [nM],EC50 (read off the curve) [8] [nM],EC50 (read off the curve) [9] [nM]
B1,~0.3,~0.3,~0.1,,,,,,
B2,~0.1,~0.3,,~0.2,~0.6,,,,
B3,,~0.5,,~0.2,,~0.1,~0.07,,
B4,,,,,,,,~0.2,0.3 to 0.4
